Experimental data reported in ChEMBL document CHEMBL1143427, “Interactions of ceftobiprole with beta-lactamases from molecular classes A to D” (Antimicrob Agents Chemother, 2007).

What was measured:
[1] = substrate: CC(C)(O/N=C(\C(=O)N[C@@H]1C(=O)N2C(C(=O)[O-])=C(C[n+]3ccccc3)CS[C@H]12)c1csc(N)n1)C(=O)O; assay: (§1) Activity of Serratia marcescens SME3 assessed as drug hydrolysis by spectrophotometry
[2] = substrate: CC1(C)S[C@@H]2[C@H](NC(=O)Cc3ccccc3)C(=O)N2[C@H]1C(=O)O; assay: as §1
[3] = substrate: CO/N=C(\C(=O)N[C@@H]1C(=O)N2C(C(=O)[O-])=C(C[N+]3(C)CCCC3)CS[C@H]12)c1csc(N)n1; assay: as §1
[4] = substrate: Nc1nc(/C(=N/O)C(=O)N[C@@H]2C(=O)N3C(C(=O)O)=C(/C=C4\CCN([C@@H]5CCNC5)C4=O)CS[C@H]23)ns1; assay: as §1
[5] = substrate: O=C(Cc1cccs1)N[C@@H]1C(=O)N2C(C(=O)[O-])=C(C[n+]3ccccc3)CS[C@H]12; assay: as §1
[6] = substrate: CC(C)(O/N=C(\C(=O)N[C@@H]1C(=O)N2C(C(=O)[O-])=C(C[n+]3ccccc3)CS[C@H]12)c1csc(N)n1)C(=O)O; assay: (§2) Ratio of Kcat to Km of Serratia marcescens SME3 assessed as drug hydrolysis by spectrophotometry
[7] = substrate: CC1(C)S[C@@H]2[C@H](NC(=O)Cc3ccccc3)C(=O)N2[C@H]1C(=O)O; assay: as §2
[8] = substrate: CO/N=C(\C(=O)N[C@@H]1C(=O)N2C(C(=O)[O-])=C(C[N+]3(C)CCCC3)CS[C@H]12)c1csc(N)n1; assay: as §2
[9] = substrate: Nc1nc(/C(=N/O)C(=O)N[C@@H]2C(=O)N3C(C(=O)O)=C(/C=C4\CCN([C@@H]5CCNC5)C4=O)CS[C@H]23)ns1; assay: as §2
[10] = substrate: O=C(Cc1cccs1)N[C@@H]1C(=O)N2C(C(=O)[O-])=C(C[n+]3ccccc3)CS[C@H]12; assay: as §2
[11] = substrate: CC(C)(O/N=C(\C(=O)N[C@@H]1C(=O)N2C(C(=O)[O-])=C(C[n+]3ccccc3)CS[C@H]12)c1csc(N)n1)C(=O)O; assay: (§3) Activity of Providencia stuartii AmpC assessed as drug hydrolysis by spectrophotometry
[12] = substrate: CC1(C)S[C@@H]2[C@H](NC(=O)Cc3ccccc3)C(=O)N2[C@H]1C(=O)O; assay: as §3
[13] = substrate: CO/N=C(\C(=O)N[C@@H]1C(=O)N2C(C(=O)[O-])=C(C[N+]3(C)CCCC3)CS[C@H]12)c1csc(N)n1; assay: as §3
[14] = substrate: Nc1nc(/C(=N/O)C(=O)N[C@@H]2C(=O)N3C(C(=O)O)=C(/C=C4\CCN([C@@H]5CCNC5)C4=O)CS[C@H]23)ns1; assay: as §3
[15] = substrate: O=C(Cc1cccs1)N[C@@H]1C(=O)N2C(C(=O)[O-])=C(C[n+]3ccccc3)CS[C@H]12; assay: as §3
[16] = substrate: CC(C)(O/N=C(\C(=O)N[C@@H]1C(=O)N2C(C(=O)[O-])=C(C[n+]3ccccc3)CS[C@H]12)c1csc(N)n1)C(=O)O; assay: (§4) Ratio of Kcat to Km of Providencia stuartii AmpC assessed as drug hydrolysis by spectrophotometry
[17] = substrate: CC1(C)S[C@@H]2[C@H](NC(=O)Cc3ccccc3)C(=O)N2[C@H]1C(=O)O; assay: as §4
[18] = substrate: CO/N=C(\C(=O)N[C@@H]1C(=O)N2C(C(=O)[O-])=C(C[N+]3(C)CCCC3)CS[C@H]12)c1csc(N)n1; assay: as §4
[19] = substrate: Nc1nc(/C(=N/O)C(=O)N[C@@H]2C(=O)N3C(C(=O)O)=C(/C=C4\CCN([C@@H]5CCNC5)C4=O)CS[C@H]23)ns1; assay: as §4
[20] = substrate: O=C(Cc1cccs1)N[C@@H]1C(=O)N2C(C(=O)[O-])=C(C[n+]3ccccc3)CS[C@H]12; assay: as §4
[21] = substrate: CC(C)(O/N=C(\C(=O)N[C@@H]1C(=O)N2C(C(=O)[O-])=C(C[n+]3ccccc3)CS[C@H]12)c1csc(N)n1)C(=O)O; assay: (§5) Activity of Serratia marcescens AmpC assessed as drug hydrolysis by spectrophotometry
[22] = substrate: CC1(C)S[C@@H]2[C@H](NC(=O)Cc3ccccc3)C(=O)N2[C@H]1C(=O)O; assay: as §5
[23] = substrate: CO/N=C(\C(=O)N[C@@H]1C(=O)N2C(C(=O)[O-])=C(C[N+]3(C)CCCC3)CS[C@H]12)c1csc(N)n1; assay: as §5
[24] = substrate: Nc1nc(/C(=N/O)C(=O)N[C@@H]2C(=O)N3C(C(=O)O)=C(/C=C4\CCN([C@@H]5CCNC5)C4=O)CS[C@H]23)ns1; assay: as §5
[25] = substrate: O=C(Cc1cccs1)N[C@@H]1C(=O)N2C(C(=O)O)=C(/C=C/c3ccc([N+](=O)[O-])cc3[N+](=O)[O-])CS[C@H]12; assay: as §5
[26] = substrate: O=C(Cc1cccs1)N[C@@H]1C(=O)N2C(C(=O)[O-])=C(C[n+]3ccccc3)CS[C@H]12; assay: as §5
[27] = substrate: CC(C)(O/N=C(\C(=O)N[C@@H]1C(=O)N2C(C(=O)[O-])=C(C[n+]3ccccc3)CS[C@H]12)c1csc(N)n1)C(=O)O; assay: (§6) Ratio of Kcat to Km of Serratia marcescens AmpC assessed as drug hydrolysis by spectrophotometry
[28] = substrate: CC1(C)S[C@@H]2[C@H](NC(=O)Cc3ccccc3)C(=O)N2[C@H]1C(=O)O; assay: as §6
[29] = substrate: CO/N=C(\C(=O)N[C@@H]1C(=O)N2C(C(=O)[O-])=C(C[N+]3(C)CCCC3)CS[C@H]12)c1csc(N)n1; assay: as §6
[30] = substrate: Nc1nc(/C(=N/O)C(=O)N[C@@H]2C(=O)N3C(C(=O)O)=C(/C=C4\CCN([C@@H]5CCNC5)C4=O)CS[C@H]23)ns1; assay: as §6
[31] = substrate: O=C(Cc1cccs1)N[C@@H]1C(=O)N2C(C(=O)O)=C(/C=C/c3ccc([N+](=O)[O-])cc3[N+](=O)[O-])CS[C@H]12; assay: as §6
[32] = substrate: O=C(Cc1cccs1)N[C@@H]1C(=O)N2C(C(=O)[O-])=C(C[n+]3ccccc3)CS[C@H]12; assay: as §6

B1: Carbapenem-hydrolyzing beta-lactamase SME-3 (Serratia marcescens), Q6PRG8 (protein)
chain: MSNKVNFKTASFLFSVCLALSAFNAHANKSDAAAKQIKKLEEDFDGRIGVFAIDTGSGNTFGYRSDERFPLCSSFKGFLAAAVLERVQQKKLDINQKVKYESRDLEYYSPITTKYKGSGMTLGDMASAALQYSDNGATNIIMERFLGGPEGMTKFMRSIGDNEFRLDRWELELNTAIPGDKRDTSTPKAVANSLNKLALGNVLNAKVKAIYQNWLKGNTTGDARIRASVPADWVVGDKTGSCGAYGTANDYAVIWPKNRAPLIVSIYTTRKSKDDKHSDKTIAEASRIAIQAID
Km [1]: 170 µM | kcat [1]: 0.16 s⁻¹ | Km [2]: 2.2 µM | kcat [2]: 8.8 s⁻¹ | Km [3]: 280 µM | kcat [3]: 1.5 s⁻¹ | Km [4]: 270 µM | kcat [4]: 5.9 s⁻¹ | Km [5]: 400 µM | kcat [5]: 1200 s⁻¹ | kcat/Km [6]: 940 M⁻¹ s⁻¹ | kcat/Km [7]: 4e+06 M⁻¹ s⁻¹ | kcat/Km [8]: 5400 M⁻¹ s⁻¹ | kcat/Km [9]: 22000 M⁻¹ s⁻¹ | kcat/Km [10]: 3e+06 M⁻¹ s⁻¹

B2: Beta-lactamase (Providencia stuartii), O69773 (protein)
chain: MDNSMKNIFRQGRLFIALSLAMTSISAFALTQQEVDDIIKPLMKQEQIPGMSVAISVNGKQAIYHYGVQSKQTQIPVSDRTLYEIGSLSKTFTATLATYAQIQGKLDFSQSVSHYLPELKGSAFDNVSVMNLATHTSGLSLFVPSDIKTNDQLMAYYQKWLPDNEVGQYRSYSNLGVGLLGIVTAKQLNMPFSQAMEKLMLPSLGLKHTYIHVPKSQEKYYAQGYNKQNQPVRLNLEILGPEAYGLKSNAKDLIRYLEINMQSIKVAKTWQEAIENTHTGVYLTDSFVQDMMWESYPWPVSLSQLLQGNRDDMALKPQKVELIKPAMAPEVRAYYNKTGSSNGFATYAIFIPEEKIAIVMLSNKWIPIPQRITATYQLLEKIER
Km [11]: 26 µM | kcat [11]: 0.19 s⁻¹ | Km [12]: 14 µM | kcat [12]: 3.3 s⁻¹ | Km [13]: 780 µM | kcat [13]: 3 s⁻¹ | Km [14]: 260 µM | kcat [14]: 0.16 s⁻¹ | Km [15]: 920 µM | kcat [15]: 530 s⁻¹ | kcat/Km [16]: 7300 M⁻¹ s⁻¹ | kcat/Km [17]: 250000 M⁻¹ s⁻¹ | kcat/Km [18]: 3800 M⁻¹ s⁻¹ | kcat/Km [19]: 620 M⁻¹ s⁻¹ | kcat/Km [20]: 580000 M⁻¹ s⁻¹

B3: Beta-lactamase (Serratia marcescens), P18539 (protein)
chain: MTKMNRCAALIAALILPTAHAAQQQDIDAVIQPLMKKYGVPGMAIAVSVDGKQQIYPYGVASKQTGKPITEQTLFEVGSLSKTFTATLAVYAQQQSKLSFKDPASHYLPDVRGSAFDGVSLLNLATHTSGLPLFVPDDVTNNAQLMAYYRAWQPKHPAGSYRVYSNLGIGMLGMIAAKSLDQPFIQAMEQGMLPALGMSHTYVQVPAAQMANYAQGYSKDDKPVRVNPGPLDAESYGIKSNARDLIRYLDANLQQVKVASVARRWPRRTSVITSAGAFTQDLMWENYPYPVKLSRLIEGNNAGMIMNGTPATAITPPQPELRAGWYNKTGSTGGFSTYAVFIPAKNIAVEMLANKWFPNDDRVEAAYHIIQALEKR
Km [21]: 570 µM | kcat [21]: < 0.05 s⁻¹ | Km [22]: 2.1 µM | kcat [22]: 19 s⁻¹ | Km [23]: > 800 µM | kcat [23]: < 0.55 s⁻¹ | Km [24]: 320 µM | kcat [24]: < 2.7 s⁻¹ | Km [25]: 14 µM | kcat [25]: 840 s⁻¹ | Km [26]: 680 µM | kcat [26]: 2000 s⁻¹ | kcat/Km [27]: < 88 M⁻¹ s⁻¹ | kcat/Km [28]: 9e+06 M⁻¹ s⁻¹ | kcat/Km [29]: < 690 M⁻¹ s⁻¹ | kcat/Km [30]: < 8400 M⁻¹ s⁻¹ | kcat/Km [31]: 6e+07 M⁻¹ s⁻¹ | kcat/Km [32]: 3.1e+06 M⁻¹ s⁻¹
